# In paper PMC3910116, “Super Spy variants implicate flexibility in chaperone action” (eLife, 2014):
# Numbering of substitutions follows the chain as printed. Names and notes keep the numbering of the source.
# T1: N-terminal strep-tagged Spy (E. coli, UniProt P77754 24-161)
# T1 construct: Spy, E. coli; Probably the mature protein behind the tag; not shown: Strep tag, N-terminal, kept
# T1 sequence (looked up): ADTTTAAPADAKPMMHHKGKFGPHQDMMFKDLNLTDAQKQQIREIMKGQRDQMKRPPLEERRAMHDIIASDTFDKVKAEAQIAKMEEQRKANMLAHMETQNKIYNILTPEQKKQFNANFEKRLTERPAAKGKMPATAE
# T2: Spy Q49L (E. coli, UniProt P77754 24-161, Q49L)
# T2 construct: N-terminal serine from the Sumo fusion construct; the footnote says it of Spy purification in general; Spy, E. coli, mature protein; numbers count on: the mature protein; Variant of m1 found by genetic selection, remade by site-directed mutagenesis; also called super-Spy variant; source: purified; not shown: SUMO, N-terminal, cleaved (from the N-terminal serine said of Spy purification in general)
# T2 sequence: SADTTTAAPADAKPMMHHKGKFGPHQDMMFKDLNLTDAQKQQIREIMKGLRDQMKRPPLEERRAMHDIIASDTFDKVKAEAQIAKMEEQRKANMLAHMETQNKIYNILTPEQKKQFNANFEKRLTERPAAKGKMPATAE
# T3: Spy Q25R (E. coli, UniProt P77754 24-161, Q25R)
# T3 construct: N-terminal serine from the Sumo fusion construct; the footnote says it of Spy purification in general; Spy, E. coli, mature protein; numbers count on: the mature protein; Variant of m1 found by genetic selection, remade by site-directed mutagenesis; also called super-Spy variant; source: purified; not shown: SUMO, N-terminal, cleaved (from the N-terminal serine said of Spy purification in general)
# T3 sequence: T2 sequence with Q26R, L50Q
# T4: Spy (wild type) (E. coli, UniProt P77754 24-161)
# T4 construct: N-terminal serine introduced from the Sumo fusion construct used for purification; numbers count on: the mature protein; construct as in Quan et al., 2011; also called WT; wild-type Spy; source: purified from a Sumo fusion construct (Quan et al., 2011); not shown: SUMO, N-terminal, cleaved (from the N-terminal serine left on the protein)
# T4 sequence: T2 sequence with L50Q
# T5: Spy L32P (E. coli, UniProt P77754 24-161, L32P)
# T5 construct: N-terminal serine from the Sumo fusion construct; the footnote says it of Spy purification in general; Spy, E. coli, mature protein; numbers count on: the mature protein; Variant of m1 found by genetic selection, remade by site-directed mutagenesis; also called super-Spy variant; source: purified; not shown: SUMO, N-terminal, cleaved (from the N-terminal serine said of Spy purification in general)
# T5 sequence: T2 sequence with L33P, L50Q
# T6: Spy H96L (E. coli, UniProt P77754 24-161, H96L)
# T6 construct: N-terminal serine from the Sumo fusion construct; the footnote says it of Spy purification in general; Spy, E. coli, mature protein; numbers count on: the mature protein; Variant of m1 found by genetic selection, remade by site-directed mutagenesis; also called super-Spy variant; source: purified; not shown: SUMO, N-terminal, cleaved (from the N-terminal serine said of Spy purification in general)
# T6 sequence: T2 sequence with L50Q, H97L
# T7: Spy Q100L (E. coli, UniProt P77754 24-161, Q100L)
# T7 construct: N-terminal serine from the Sumo fusion construct; the footnote says it of Spy purification in general; Spy, E. coli, mature protein; numbers count on: the mature protein; Variant of m1 found by genetic selection, remade by site-directed mutagenesis; also called super-Spy variant; source: purified; not shown: SUMO, N-terminal, cleaved (from the N-terminal serine said of Spy purification in general)
# T7 sequence: T2 sequence with L50Q, Q101L
# T8: Spy F115L (E. coli, UniProt P77754 24-161, F115L)
# T8 construct: N-terminal serine from the Sumo fusion construct; the footnote says it of Spy purification in general; Spy, E. coli, mature protein; numbers count on: the mature protein; Variant of m1 found by genetic selection, remade by site-directed mutagenesis; also called super-Spy variant; source: purified; not shown: SUMO, N-terminal, cleaved (from the N-terminal serine said of Spy purification in general)
# T8 sequence: T2 sequence with L50Q, F116L
# T9: Spy F115I (E. coli, UniProt P77754 24-161, F115I)
# T9 construct: N-terminal serine from the Sumo fusion construct; the footnote says it of Spy purification in general; Spy, E. coli, mature protein; numbers count on: the mature protein; Variant of m1 found by genetic selection, remade by site-directed mutagenesis; also called super-Spy variant; source: purified; not shown: SUMO, N-terminal, cleaved (from the N-terminal serine said of Spy purification in general)
# T9 sequence: T2 sequence with L50Q, F116I
# B1: Im7 L53A I54A tryptic fragment 5–43 (peptide, UniProt Q03708 5-43, looked up)
# chain: NSISDYTEAEFVQLLKEIEKENVAATDDVLDVLLEHFVK
# notes: immunity protein 7 (Im7), residues 5-43; most of the α1 and α2 helices; source: limited proteolysis of Im7 L53A I54A with trypsin
# B2: Im7 L53A I54A tryptic fragment 5–70 (domain or fragment, UniProt Q03708 5-70, looked up)
# chain: NSISDYTEAEFVQLLKEIEKENVAATDDVLDVLLEHFVKITEHPDGTDAAYYPSDNRDDSPEGIVK
# notes: immunity protein 7 (Im7), residues 5-70; source: limited proteolysis of Im7 L53A I54A with trypsin
# B3: Biotinylated Im7 L53A I54A (natural protein)
# chain: SMELKNSISDYTEAEFVQLLKEIEKENVAATDDVLDVLLEHFVKITEHPDGTDAAYYPSDNRDDSPEGIVKEIKEWRAANGKPGFKQG
# modifications: biotin (EZ-link NHS-biotin at 1:1 molar ratio; site not stated)
# notes: N-terminal serine from the Sumo fusion construct; the footnote says it of Im7 purification in general; immunity protein 7 (Im7), colicin E7 immunity protein; Same protein as m10 with biotin; held on streptavidin sensors; also called biotin-conjugated Im7 L53A I54A; immunity protein 7 L53A I54A; source: purified from a Sumo fusion construct (Quan et al., 2011), biotinylated with EZ-link …
# B4: Im7 12-45 peptide (peptide)
# chain: SEAEFVQLLKEIEKENVAATDDVLDVLLEHFVKIT
# notes: N-terminal serine from the Sumo fusion construct; the footnote says it of Im7 purification in general; immunity protein 7 (Im7), residues 12-45; source: expressed in vivo, purified; not shown: SUMO, N-terminal, cleaved (from the N-terminal serine said of Im7 purification in general)
# B5: Im7 3-45 peptide (peptide)
# chain: SLKNSISDYTEAEFVQLLKEIEKENVAATDDVLDVLLEHFVKIT
# notes: N-terminal serine from the Sumo fusion construct; the footnote says it of Im7 purification in general; immunity protein 7 (Im7), residues 3-45; source: expressed in vivo, purified; not shown: SUMO, N-terminal, cleaved (from the N-terminal serine said of Im7 purification in general)
# B6: Im7 L53A I54A (natural protein)
# chain: B3 chain
# notes: N-terminal serine from the Sumo fusion construct; the footnote says it of Im7 purification in general; immunity protein 7 (Im7), colicin E7 immunity protein; also called full length Im7 L53A I54A; immunity protein 7 L53A I54A; source: purified from a Sumo fusion construct (Quan et al., 2011); not shown: SUMO, N-terminal, cleaved (from the N-terminal serine said of Im7 purification in general)
# B7: Im7 7-45 peptide (peptide)
# chain: SISDYTEAEFVQLLKEIEKENVAATDDVLDVLLEHFVKIT
# notes: N-terminal serine introduced from the Sumo fusion construct; immunity protein 7 (Im7), residues 7-45; Called a 40-amino acid peptide: 39 residues of Im7 and the N-terminal serine; An equimolar mixture of unlabelled and 15N-labelled peptide was used for PICUP and EDC; also called Im7 L53A I54A 7-45 peptide; source: expressed in vivo as a Sumo fusion construct, purified; not shown: SUMO, …
# B8: Im7 L53A I54A tryptic fragment 5–73 (domain or fragment, UniProt Q03708 5-73, looked up)
# chain: NSISDYTEAEFVQLLKEIEKENVAATDDVLDVLLEHFVKITEHPDGTDAAYYPSDNRDDSPEGIVKEIK
# notes: immunity protein 7 (Im7), residues 5-73; source: limited proteolysis of Im7 L53A I54A with trypsin
# B9: Im7 L53A I54A tryptic fragment 5–76 (domain or fragment, UniProt Q03708 5-76, looked up)
# chain: NSISDYTEAEFVQLLKEIEKENVAATDDVLDVLLEHFVKITEHPDGTDAAYYPSDNRDDSPEGIVKEIKEWR
# notes: immunity protein 7 (Im7), residues 5-76; source: limited proteolysis of Im7 L53A I54A with trypsin
# Columns and labels:
# Conditions in all cases: both partners purified
# [1] = target: T1, N-terminal strep-tagged Spy; assay: pull-down; tryptic fragments of Im7 L53A I54A mixed with N-terminal strep-tagged Spy, strep-tactin sepharose column, eluted with 2.5 mM desthiobiotin, fragments identified by LC/MS
# [2] = target: T2, Spy Q49L; assay: BLI; biotinylated Im7 L53A I54A immobilised on streptavidin sensors (Octet RED); Spy variants at 2, 1, 0.5, 0.25 and 0.125 µM; 25°C; 40 mM HEPES, 150 mM NaCl, pH 7.5; 1:1 binding model, KD = koff/kon; apparent
# [3] = target: T3, Spy Q25R; assay: as above
# [4] = target: T4, Spy (wild type); assay: as above
# [5] = target: T5, Spy L32P; assay: as above
# [6] = target: T6, Spy H96L; assay: as above
# [7] = target: T7, Spy Q100L; assay: as above
# [8] = target: T8, Spy F115L; assay: as above
# [9] = target: T9, Spy F115I; assay: as above
# [10] = target: T4, Spy (wild type); assay: ITC; Spy with full length Im7 L53A I54A or purified Im7 peptides; conditions and who was titrated not told
# [11] = target: T2, Spy Q49L; assay: HDX-MS; top-down ECD-FTICR-MS; 25 µM Spy (dimer) and 100 µM Im7 peptide (1:4), 10 mM ammonium acetate, 80% D2O, labelling time 10 s
# [12] = target: T3, Spy Q25R; assay: as above
# [13] = target: T5, Spy L32P; assay: as above
# [14] = target: T6, Spy H96L; assay: as above
# [15] = target: T7, Spy Q100L; assay: as above
# [16] = target: T8, Spy F115L; assay: as above
# [17] = target: T9, Spy F115I; assay: as above
binder,measurement,setting,value
B1,binding result,[1],binds
B2,binding result,[1],binds
B3,Kd,[2],760 nM
same,koff,[2],0.176 s⁻¹
same,Kd,[3],870 nM
same,koff,[3],0.198 s⁻¹
same,Kd,[4],1150 nM
same,koff,[4],0.456 s⁻¹
same,Kd,[5],200 nM
same,koff,[5],0.03 s⁻¹
same,Kd,[6],1000 nM
same,koff,[6],0.266 s⁻¹
same,Kd,[7],230 nM
same,koff,[7],0.027 s⁻¹
same,Kd,[8],900 nM
same,koff,[8],0.245 s⁻¹
same,Kd,[9],1170 nM
same,koff,[9],0.328 s⁻¹
B4,Kd,[10],8000 nM
B5,Kd,[10],2300 nM
B6,Kd,[10],2500 nM
B7,Kd,[10],2600 nM
same,binding result,[11],binds
same,binding result,[12],binds
same,binding result,[13],binds
same,binding result,[14],binds
same,binding result,[15],binds
same,binding result,[16],binds
same,binding result,[17],binds
B8,binding result,[1],binds
B9,binding result,[1],binds
